Source: PMC2851732 (2010)
Where two headings read alike, the source gives them in different places. Ends that are not written are not given here. * marks the point of attachment. FITC = O=C1OC2(c3ccc(O)cc3Oc3cc(O)ccc32)c2ccc(NC(=S)*)cc21; βAla = NCCC(=O)O

Legend:
[1] = biological target: T1, DV2 sE(1–395), postfusion trimer (dengue virus type 2, UniProt P12823); assay: FP
[2] = biological target: T1, DV2 sE(1–395), postfusion trimer; assay: FP; remark: listed apart in the source

Binder	Kd [1] [nM]	Kd [2] [nM]
AILGDTAWDFGSLGGVFTSIGKALHQVFGAIYGAA [stem peptide DV2^413–447]	275	–
{FITC-βAla}-AWDFGSLGGVFTSIGKALHQVF [FITC-conjugated stem peptide DV2^419–440]	–	250
{FITC-βAla}-AWDFGSLGGVFTSIGKALHQVFGAIYGAA [FITC-conjugated stem peptide DV2^419–447]	–	125
